Measured values reported in paper PMC4654454 (ACS chemical biology, 2015).
Residue numbers refer to the chain shown, from its start. No end group written: not given here.

Assays:
[1] = biological target: T1, human Origin Recognition Complex subunit 1 BAH domain, wild type (human, UniProt Q13415 45-171); assay: ITC
T1 sequence (looked up): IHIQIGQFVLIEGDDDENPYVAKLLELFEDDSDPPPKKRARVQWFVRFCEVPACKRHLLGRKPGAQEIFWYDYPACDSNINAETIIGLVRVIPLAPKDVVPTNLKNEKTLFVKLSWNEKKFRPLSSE

[2] = biological target: T2, human Origin Recognition Complex subunit 1 BAH domain, R105Q mutant (human, UniProt Q13415 45-171, R105Q); assay: ITC
T2 sequence (looked up): T1 sequence (looked up) with R61Q

[3] = biological target: T3, hORC1 BAH domain, wild type (human, UniProt Q13415 45-171); assay: EMSA
T3 sequence: T1 sequence (looked up)

GAKRHRCVLRDNY (not fully specified (residue 7)) [histone H4(14–25)Kc20me2 peptide]
Kd [1]: 8.85 µM
Kd [2]: 8.33 µM

B1: 14-bp DNA duplex (dsDNA)
DNA 1: GGAGGCCTCCTGCT
DNA 2: AGCAGGAGGCCTCC
binding result [3]: binds
